In the supplement of paper PMC11246515:
± gives the standard deviation of the averaged measurements.

Assay: total protein half-life in vivo (active degradation + dilution); higher = more stable protein
[1] = E. coli NCM3722 delta-clpP delta-lon delta-hslV, growth: N-lim chemostat, doubling time 6 h
[2] = wild type E. coli NCM3722, growth: C-lim chemostat, doubling time 3 h
[3] = wild type E. coli NCM3722, growth: C-lim chemostat, doubling time 6 h
[4] = wild type E. coli NCM3722, growth: C-lim chemostat, doubling time 12 h
[5] = wild type E. coli NCM3722, growth: P-lim chemostat, doubling time 6 h
[6] = wild type E. coli NCM3722, growth: P-lim chemostat, doubling time 12 h
[7] = E. coli NCM3722 delta-clpP, growth: N-lim chemostat, doubling time 6 h
[8] = E. coli NCM3722 delta-hslV, growth: N-lim chemostat, doubling time 6 h
[9] = E. coli NCM3722 delta-lon, growth: N-lim chemostat, doubling time 6 h
[10] = E. coli NCM3722 delta-smpB, growth: N-lim chemostat, doubling time 6 h
[11] = wild type E. coli NCM3722, growth: N-lim chemostat, doubling time 6 h
[12] = wild type E. coli NCM3722, growth: N-lim chemostat, doubling time 12 h

With “MKIVKAEVFVTCPGRNFVTLKITTEDGITGLGDATLNGRELSVASYLQDHLCPQLIGRDAHRIEDIWQFFYKGAYWRRGPVTMSAISAVDMALWDIKAKAANMPLYQLLGGASREGVMVYCHTTGHSIDEALDDYARHQELGFKAIRVQCGIPGMKTTYGMSKGKGLAYEPATKGQWPEEQLWSTEKYLDFMPKLFDAVRNKFGFNEHLLHDMHHRLTPIEAARFGKSIEDYRMFWMEDPTPAENQECFRLIRQHTVTPIAVGEVFNSIWDCKQLIEEQLIDYIRTTLTHAGGITGMRRIADFASLYQVRTGSHGPSDLSPVCMAAALHFDLWVPNFGVQEYMGYSEQMLEVFPHNWTFDNGYMHPGDKPGLGIEFDEKLAAKYPYEPAYLPVARLEDGTLWNW” the “total protein half-life in vivo” value [1] was 5.64 ± 0.3 h, the “total protein half-life in vivo” value [2] was 3.61 ± 0.2 h and the “total protein half-life in vivo” value [3] was 6.03 ± 0.18 h. For the same sequence, the “total protein half-life in vivo” value [4] was 10.5 ± 1.8 h, the “total protein half-life in vivo” value [5] was 7.33 h and the “total protein half-life in vivo” value [6] was greater than 16 h.

With “MKIYLVGGAVRDALLGLPVKDRDWVVVGSTPQEMLDAGYQQVGRDFPVFLHPQTHEEYALARTERKSGSGYTGFTCYAAPDVTLEDDLKRRDLTINALAQDDNGEIIDPYNGLGDLQNRLLRHVSPAFGEDPLRVLRVARFAARYAHLGFRIADETLALMREMTHAGELEHLTPERVWKETESALTTRNPQVFFQVLRDCGALRVLFPEIDALFGVPAPAKWHPEIDTGIHTLMTLSMAAMLSPQVDVRFATLCHDLGKGLTPPELWPRHHGHGPAGVKLVEQLCQRLRVPNEIRDLARLVAEFHDLIHTFPMLNPKTIVKLFDSIDAWRKPQRVEQLALTSEADVRGRTGFESADYPQGRWLREAWEVAQSVPTKAVVEAGFKGVEIREELTRRRIAAVASWKEQRCPKPE” the “total protein half-life in vivo” value [1] was 4.23 ± 0.88 h, the “total protein half-life in vivo” value [7] was 3.75 ± 0.11 h and the “total protein half-life in vivo” value [8] was 3.29 ± 0.057 h. The “total protein half-life in vivo” value [9] was 3.79 ± 0.16 h, the “total protein half-life in vivo” value [10] was 3.37 ± 0.045 h and the “total protein half-life in vivo” value [2] was 2.96 ± 0.27 h. For the same sequence, the “total protein half-life in vivo” value [3] was 5.06 ± 0.79 h, the “total protein half-life in vivo” value [4] was 8.37 ± 0.69 h and the “total protein half-life in vivo” value [11] was 3.48 ± 0.28 h. The “total protein half-life in vivo” value [12] was 5.55 ± 0.2 h, the “total protein half-life in vivo” value [5] was 5.114 ± 0.016 h and the “total protein half-life in vivo” value [6] was 9.86 ± 0.35 h.

For “MKKFAAVIAVMALCSAPVMAAEQGGFSGPSATQSQAGGFQGPNGSVTTVESAKSLRDDTWVTLRGNIVERISDDLYVFKDASGTINVDIDHKRWNGVTVTPKDTVEIQGEVDKDWNSVEIDVKQIRKVNP [P0ADU5]”, the “total protein half-life in vivo” value [1] was 3.85 ± 0.19 h, the “total protein half-life in vivo” value [7] was 5.07 ± 0.71 h and the “total protein half-life in vivo” value [8] was 5.86 ± 0.11 h. The “total protein half-life in vivo” value [9] was 6.2 ± 0.35 h, the “total protein half-life in vivo” value [10] was 5.91 ± 0.28 h and the “total protein half-life in vivo” value [2] was 2.89 ± 0.69 h. The “total protein half-life in vivo” value [3] was 5.83 ± 0.75 h, the “total protein half-life in vivo” value [4] was 6.74 ± 1.2 h and the “total protein half-life in vivo” value [11] was 6.22 ± 0.79 h. For the same sequence, the “total protein half-life in vivo” value [12] was 11.8 ± 0.34 h, the “total protein half-life in vivo” value [5] was 4.72 ± 0.64 h and the “total protein half-life in vivo” value [6] was 7.98 ± 1.5 h.

With “MKKIAAISLISIFIMSGCAVHNDETSIGKFGLAYKSNIQRKLDNQYYTEAEASLARGRISGAENIVKNDATHFCVTQGKKMQIVELKTEGVGLHGVARLTFKCGE” the “total protein half-life in vivo” value [7] was 5.75 ± 0.084 h, the “total protein half-life in vivo” value [8] was 6.67 ± 0.98 h and the “total protein half-life in vivo” value [10] was 6.04 ± 0.45 h. For the same sequence, the “total protein half-life in vivo” value [2] was 3.03 ± 0.37 h, the “total protein half-life in vivo” value [3] was 5.62 ± 0.76 h and the “total protein half-life in vivo” value [4] was 11.3 ± 0.14 h. For the same sequence, the “total protein half-life in vivo” value [11] was 6.8 ± 0.99 h and the “total protein half-life in vivo” value [12] was 13.1 ± 1.9 h.

With “MKKIAFGCDHVGFILKHEIVAHLVERGVEVIDKGTWSSERTDYPHYASQVALAVAGGEVDGGILICGTGVGISIAANKFAGIRAVVCSEPYSAQLSRQHNDTNVLAFGSRVVGLELAKMIVDAWLGAQYEGGRHQQRVEAITAIEQRRN” the “total protein half-life in vivo” value [1] was 4.69 ± 0.15 h, the “total protein half-life in vivo” value [8] was 3.77 ± 0.19 h and the “total protein half-life in vivo” value [9] was 3.82 ± 0.13 h. For the same sequence, the “total protein half-life in vivo” value [10] was 3.45 ± 0.1 h, the “total protein half-life in vivo” value [2] was 3.05 ± 0.37 h and the “total protein half-life in vivo” value [3] was 5.6 ± 0.41 h. The “total protein half-life in vivo” value [4] was 9.29 ± 1.4 h, the “total protein half-life in vivo” value [11] was 3.725 ± 0.033 h and the “total protein half-life in vivo” value [12] was 5.17 ± 1 h. The “total protein half-life in vivo” value [5] was 5.32 ± 0.18 h and the “total protein half-life in vivo” value [6] was 10.2 ± 0.91 h.

With “MKKIAITCALLSSLVASSVWADAASDLKSRLDKVSSFHASFTQKVTDGSGAAVQEGQGDLWVKRPNLFNWHMTQPDESILVSDGKTLWFYNPFVEQATATWLKDATGNTPFMLIARNQSSDWQQYNIKQNGDDFVLTPKASNGNLKQFTINVGRDGTIHQFSAVEQDDQRSSYQLKSQQNGAVDAAKFTFTPPQGVTVDDQRK” the “total protein half-life in vivo” value [1] was 4.62 ± 0.5 h, the “total protein half-life in vivo” value [7] was 5.76 ± 1 h and the “total protein half-life in vivo” value [8] was 7.06 ± 1.3 h. The “total protein half-life in vivo” value [2] was 3.364 ± 0.025 h, the “total protein half-life in vivo” value [3] was 5.679 ± 0.056 h and the “total protein half-life in vivo” value [4] was 9.08 ± 0.39 h. The “total protein half-life in vivo” value [11] was 6.25 ± 0.41 h, the “total protein half-life in vivo” value [12] was 12.5 ± 0.7 h and the “total protein half-life in vivo” value [5] was 5.978 ± 0.007 h. The “total protein half-life in vivo” value [6] was 12.124 ± 0.011 h.

For “MKKIECACNFLMDKDAQGYIDLSDLDLTSCHFKGDVISKVSFLSSNLQHVTFECKEIGDCNFTTAIVDNVIFRCRRLHNVIFIKASGECVDFSKNILDTVDFSQSQLGHSNFRECQIRNSNFDNCYLYASHFTRAEFLSAKEISFIKSNLTAVMFDYVRMSTGNFKDCITEQLELTIDYSDIFWNEDLDGYINNIIKMIDTLPDNAMILKSVLAVKLVMQLKILNIVNKNFIENMKKIFSHCPYIKDPIIRSYIHSDEDNKFDDFMRQHRFSEVNFDTQQMIDFINRFNTNKWLIDKNNNFFIQLIDQALRSTDDMIKANVWHLYKEWIRSDDVSPIFIETEDNLRTFNTNELTRNDNIFILFSSVDDGPVMVVSSQRLHDMLNPTKDTNWNSTYIYKSRHEMLPVNLTQETLFSSKSHGKYALFPIFTASWRAHRIMNKGV”, the “total protein half-life in vivo” value [4] was 11.2 h.

In the case of “MKKIICLVITLLMTLPVYAKLTAHEEARINAMLEGLAQKKDLIFVRNGDEHTCYEAVSHLRLKLGNTRNRIDTAEQFIDKVASSSSITGKPYIVKIPGKSDENAQPFLHALIAQTDKTVPAEGN”, the “total protein half-life in vivo” value [4] is reported as 3.18 h.

For “MKKILTTPIKAEDLQDIRVGDVIYLTGTLVTCRDVCHRRLIELKRPIPYDLNGKAIFHAGPIVRKNGDKWEMVSVGPTTSMRMESFEREFIEQTGVKLVVGKGGMGPLTEEGCQKFKALHVIFPAGCAVLAATQVEEIEEVHWTELGMPESLWVCRVKEFGPLIVSIDTHGNNLIAENKKLFAERRDPIVEEICEHVHYIK [P0AC35]”, the “total protein half-life in vivo” value [1] was 6.21 h.

For “MKKIPLGTTDITLSRMGLGTWAIGGGPAWNGDLDRQICIDTILEAHRCGINLIDTAPGYNFGNSEVIVGQALKKLPREQVVVETKCGIVWERKGSLFNKVGDRQLYKNLSPESIREEVAASLQRLGIDYIDIYMTHWQSVPPFFTPIAETVAVLNELKSEGKIRAIGAANVDADHIREYLQYGELDIIQAKYSILDRAMENELLPLCRDNGIVVQVYSPLEQGLLTGTITRDYVPGGARANKVWFQRENMLKVIDMLEQWQPLCARYQCTIPTLALAWILKQSDLISILSGATAPEQVRENVAALNINLSDADATLMREMAEALER”, the “total protein half-life in vivo” value [1] was 3.71 ± 1.3 h, the “total protein half-life in vivo” value [8] was 4.29 ± 0.48 h and the “total protein half-life in vivo” value [10] was 4.19 ± 0.18 h. The “total protein half-life in vivo” value [2] was 2.96 ± 0.2 h, the “total protein half-life in vivo” value [3] was 5.64 ± 1.4 h and the “total protein half-life in vivo” value [4] was 8.09 ± 1.9 h. For the same sequence, the “total protein half-life in vivo” value [11] was 3.97 ± 0.2 h, the “total protein half-life in vivo” value [12] was 6.75 h and the “total protein half-life in vivo” value [5] was 6.344 ± 0.018 h. For the same sequence, the “total protein half-life in vivo” value [6] was 11.9 ± 0.44 h.

For “MKKKILAFGLISALFCSTPAMADMNRTTKGALLGAGVGLLTGNGVNGVLKGAAVGAGVGAVTEKGRDGKNARKGAKVGAAVGAVTGVLTGNGLEGAIKGAVIGGTGGAILGKMK [Q7DFV3]”, the “total protein half-life in vivo” value [8] was 1.46 ± 0.28 h, the “total protein half-life in vivo” value [10] was 1.39 h and the “total protein half-life in vivo” value [2] was 1.42 ± 0.11 h. For the same sequence, the “total protein half-life in vivo” value [3] was 1.67 h, the “total protein half-life in vivo” value [11] was 1.78 ± 0.36 h and the “total protein half-life in vivo” value [12] was 1.87 h. For the same sequence, the “total protein half-life in vivo” value [5] was 2.752 ± 0.007 h and the “total protein half-life in vivo” value [6] was 5.14 ± 0.75 h.
